Measured values: patent US20140206846A1 (published 2014)
Substitutions are numbered along the chain they refer to.

Tests used:
[1] = biological target: IL6 (human, UniProt P05231 30-212); experiment: Biacore
[2] = biological target: T1, VEGF (human, UniProt P15692 27-191); experiment: Biacore
T1 chain: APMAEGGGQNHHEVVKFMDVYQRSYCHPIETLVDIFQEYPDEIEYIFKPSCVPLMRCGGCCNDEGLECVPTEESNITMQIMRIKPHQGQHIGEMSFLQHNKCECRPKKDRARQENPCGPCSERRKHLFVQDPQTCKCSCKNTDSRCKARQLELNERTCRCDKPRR

[3] = biological target: T2, human IL6 (human, UniProt P05231 30-212); experiment: Biacore; captured on anti-LC
[4] = biological target: T2, human IL6; experiment: Biacore; captured on GMCSF
[5] = biological target: T2, human IL6; experiment: Biacore
[6] = biological target: MBP; experiment: Biacore
[7] = biological target: GST; experiment: Biacore

T2 sequence (P05231 30-212): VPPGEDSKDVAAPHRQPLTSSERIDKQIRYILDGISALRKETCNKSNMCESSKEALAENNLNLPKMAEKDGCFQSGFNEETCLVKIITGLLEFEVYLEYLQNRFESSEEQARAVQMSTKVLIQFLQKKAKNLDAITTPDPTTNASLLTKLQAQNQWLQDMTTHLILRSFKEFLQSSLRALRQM
IL6, sequence (P05231 30-212): as above

B1: IL6 P (Fab, V domains shown)
VH: EVQLVESGGGLVQPGGSLRLSCAASGFTFSSYAMSWIRQAPGKGLEWIGQISGSGGSTVYNYNVLGRFTISRDNSKNTLYLQMNSLRAEDTAVYYCARDSGYFDIWGQGTLVTVSS
VL: NIQKTQSPSSLSASVGDRVTITCRALWHISSYLAWYQQKPGKAPKLLIYAASSLYSGVPSRFSGSGSGTDFTLTISSLQPEDFATYYCQQYSGLPYTFGQGTKVEIKR
- koff [1]: 0.00413 s⁻¹
- koff [2]: 0.00204 s⁻¹

B2: GH6L (bispecific antibody, V domains shown)
VH: B1 VH with E1W, S25K, F27A, T28L, S31T
VL: ATQRTQSPSSLSASVGDRVTITCRALWHISSYLAWYQQKPGKAPKLLIYAASWLYWDVPSRFSGSGSGTDFTLTISSLQPEDFATYYCQQYSGLPYTFGQGTKVEIK
- Kd [3]: 30.4 nM
- Kd [4]: 18.7 nM

B3: VH6L (bispecific antibody, V domains shown)
VH: B1 VH with E1Y, V2Y, S25D, T28L, S31G, S100T, I105H
VL: B2 VL with A1N, T2I, R4K, W53H, Y55H, W56Y, D57G
- koff [5]: 0.00472 s⁻¹

B4: Fab DT3 (bispecific antibody, V domains shown)
VH: B1 VH with E1W, S25R, T28P, S31H, V59W, Y62H, N63D, V64I, L65K, I105W
VL: GIQMTQSPSSLSASVGDRVTITCRARWYISSYLAWYQQKPGKAPKLLIFAASRLILNVPSRFSGSGSGKDFTLTISSLQPEDFATYYCQQYSELPYTFGQGTKVEIK
- Kd [6]: 313 nM
- Kd [7]: 17 nM
